For assay [1], the target named is T1, huFc-NKG2A/CD94 (UniProt P26715 94-233; Q13241 32-179, limits assumed).
T1 construct: Construct known only by its name; the order of the pieces follows the name huFc-NKG2A; not shown: human Fc (huFc)
The experiment in a line: phage supernatant ELISA on huFc-NKG2A/CD94 against huFc-NKG2C/CD94 and huFc-NKG2E/CD94; criterion of selection met by MA-1. (In an ELISA, binding on a coated surface is turned into a signal by an enzyme label.)

Assay [2] has as its target T2, huFc-NKG2C/CD94 (UniProt P26717 94-231; Q13241 32-179, limits assumed).
T2 construct: Construct known only by its name; not shown: human Fc (huFc)
The experiment in a line: ELISA, dilution series of MA-1 on huFc-NKG2C/CD94, anti-mouse Ig-HRP.

For assay [3], the target named is T3, huFc-NKG2E/CD94 (UniProt Q07444 94-240; Q13241 32-179, limits assumed).
T3 construct: Construct known only by its name; not shown: human Fc (huFc)
The experiment in a line: ELISA, dilution series of MA-1 on huFc-NKG2E/CD94, anti-mouse Ig-HRP.

T3 sequence (Q07444 94-240 limits assumed, chain 1 of 2): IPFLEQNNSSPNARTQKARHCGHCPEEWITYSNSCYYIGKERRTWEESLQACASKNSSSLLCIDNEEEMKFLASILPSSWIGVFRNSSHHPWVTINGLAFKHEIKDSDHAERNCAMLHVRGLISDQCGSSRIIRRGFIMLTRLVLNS
T3 sequence (Q13241 32-179 limits assumed, chain 2 of 2): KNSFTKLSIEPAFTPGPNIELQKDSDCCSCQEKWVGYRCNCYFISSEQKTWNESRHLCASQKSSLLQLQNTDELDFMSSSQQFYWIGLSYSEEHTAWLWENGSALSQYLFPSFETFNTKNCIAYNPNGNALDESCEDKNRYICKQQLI
T2 sequence (P26717 94-231 limits assumed, chain 1 of 2): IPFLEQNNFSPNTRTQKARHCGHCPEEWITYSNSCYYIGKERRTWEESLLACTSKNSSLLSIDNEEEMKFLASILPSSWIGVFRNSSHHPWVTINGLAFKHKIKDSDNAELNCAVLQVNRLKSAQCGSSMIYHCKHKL
T2 sequence (Q13241 32-179 limits assumed, chain 2 of 2): as the sequence (Q13241 32-179 limits assumed, chain 2 of 2) above
T1 sequence (P26715 94-233 limits assumed, chain 1 of 2): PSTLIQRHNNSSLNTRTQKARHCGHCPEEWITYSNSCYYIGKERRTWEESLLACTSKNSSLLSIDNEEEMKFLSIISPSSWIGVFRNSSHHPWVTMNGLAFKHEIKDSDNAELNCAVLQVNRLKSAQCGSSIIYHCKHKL
T1 sequence (Q13241 32-179 limits assumed, chain 2 of 2): as the sequence (Q13241 32-179 limits assumed, chain 2 of 2) above

B1: MA-1 噬菌体单克隆抗体 (phage-displayed single-chain antibody MA-1) (scFv)
chain: EVKLEESGGGLVKPGGSLKLSCAASGFAFSDYDMSWVRQTPEKRLEWVATISSGGSYTYYPDSVKGRFTISRDNARNTLYLQMSSLRSEDTALYYCTSPRQVGLRKAFDYWGQGTTLTVSSDIVVTQSPALMSASPGEKVTMTCSASSSVSYMYWYQQKPRSSPKSWIYLTSNLASGVPARFSGSGSGTSYSLTISSMEAEDAATYYCQQWSSNPFTFGSGTKLEIKRAD
Turning to B1, the “OD450nm ratio, NKG2A against NKG2C/E” value in assay [1] was not below 3 fold.

B2: MA-1 鼠源全抗分子 (mouse IgG2a / mouse Ck full antibody) (antibody, V domains shown)
VH: EVKLEESGGGLVKPGGSLKLSCAASGFAFSDYDMSWVRQTPEKRLEWVATISSGGSYTYYPDSVKGRFTISRDNARNTLYLQMSSLRSEDTALYYCTSPRQVGLRKAFDYWGQGTTLTVSS
VL: DIVVTQSPALMSASPGEKVTMTCSASSSVSYMYWYQQKPRSSPKSWIYLTSNLASGVPARFSGSGSGTSYSLTISSMEAEDAATYYCQQWSSNPFTFGSGTKLEIKR
notes: plain joining would double 'AD' at the junction; also called MA-1鼠源抗体; 抗NKG2A单克隆抗体MA-1
For B2, the binding result in assay [2] and in assay [3] was “no binding” in each case.
